Test results published in patent US20150118239A1 (GEORG AUGUST UNIVERSIT T G TTINGEN STIFTUNG FFENTLICHEN …, published 2015).

T1: Aβ4-10 (human)
T1 construct: Screening peptide of the hybridoma ELISA
T1 peptide: FRHDSGY

T2: Aβ36-40 (human)
T2 construct: Counter-screening peptide of the hybridoma ELISA
T2 peptide: VGGVV

T3: Aβ4-19 (human)
T3 construct: Pepscan 16-mer
T3 peptide: FRHDSGYEVHHQKLVF

T4: Aβ3-18 (human)
T4 construct: Pepscan 16-mer
T4 peptide: EFRHDSGYEVHHQKLV

T5: Aβ2-17 (human)
T5 construct: Pepscan 16-mer
T5 peptide: AEFRHDSGYEVHHQKL

T6: Aβ5-20 (human)
T6 construct: Pepscan 16-mer
T6 peptide: RHDSGYEVHHQKLVFF

B1: NT4X-83 (antibody, V domains shown)
VH: EVHLQQSGAELVKPGASVKLSCTASGFNIRDTYIHWVKQRPEQGLEWIGRVDPANGNTKYDPKFQGKATITADTSSDTAYLQLSSLTAEDTAVYFCARRIYYGYALFAYWGQGTLVTVSA
VL: DIVMTQSPSSLTVTAGEKVTMSCKSSQSLLNSGNQKNYLTWYQQKPGQPPKLLIYWASTRESGVPDRFTGSGSGTDFTLTISSVQAEDLAVYYCQNDYSYPLTFGAGTKLELK
notes: also called Aβ4-40 NT4X-83; DSM ACC3161
B2: NT4X-167 (antibody, V domains shown)
VH: QVQLKQSGPGLVQPSQSLSITCTVSGFSLTSYGIHWVRQSPGKGLEWLGVMWSGGITDFYAAFISRLSISRDISKSQVFFKMNSLQADDTAIYYCARGSRYALDYWGQGTSVSVSS
VL: DIQMTQTTSSLSASLGDRVTISCRASQDISNYLNWYQQKPDGTVKLLIYYTSRLHSGVPSRFSGSGSGTDYSLTISNLEQEDIATYFCQQGNTLPPTFGGGTKLEIK
notes: also called NT4X-67

How the values were obtained:
[1] = molecular target: T7, AβpE3-42 low molecular weight (LMW) oligomers (human, N-terminal pyroglutamate at Aβ position 3 (pE3)); assay: native Western blot, sensitivity test
T7 construct: otherwise only LMW oligomers

[2] = molecular target: T8, Aβ4-42 low molecular weight (LMW) oligomers (human); assay: native Western blot, sensitivity test
T8 construct: otherwise only LMW oligomers; also called Aβ4-42 oligomers

[3] = molecular target: T9, Phospho-Tau aggregates (tufted astrocytes in PSP, Pick bodies in PiD) (human, UniProt P10636-8 2-441, limits assumed, phosphorylated, sites not stated); assay: IHC, brain sections of non-AD neurodegenerative disorders
T9 construct: Tissue aggregates in patients' brain sections; also called pTau

[4] = molecular target: T10, Phospho-TDP-43 neuronal cytoplasmic and neuritic deposits (human, UniProt Q13148 1-414, limits assumed, phosphorylated, sites not stated); assay: as above
T10 construct: Tissue aggregates in patients' brain sections

[5] = molecular target: T11, Prion protein (PrP) deposits (human, UniProt P04156 23-230); assay: as above
T11 construct: also called PrP immunopositive amyloid plaques, synaptic, plaque-like and perineuronal deposits

[6] = molecular target: α-Synuclein aggregates (Lewy bodies, Lewy neurites, glial cytoplasmic inclusions) (human, UniProt P37840 1-140); assay: as above
Aβ4-10 = molecular target: T1, Aβ4-10; assay: hybridoma screening ELISA
Aβ36-40 = molecular target: T2, Aβ36-40; assay: hybridoma screening ELISA
Aβ4-19 = molecular target: T3, Aβ4-19; assay: pepscan ELISA, coated 16-mer peptides, antibody 7 µg/ml
Aβ3-18 = molecular target: T4, Aβ3-18; assay: as above
Aβ2-17 = molecular target: T5, Aβ2-17; assay: as above
Aβ4-40 [7] = molecular target: T12, Aβ4-40 (human); assay: native Western blot, equal amounts of freshly dissolved peptides
T12 construct: Synthetic peptide, the immunogen

Aβ4-38 [8] = molecular target: T13, Aβ4-38 (human); assay: as above
T13 construct: Synthetic peptide

Aβ5-20 = molecular target: T6, Aβ5-20; assay: pepscan ELISA
Aβ4-42 = Aβ4-42 (human); assay: cell-based or functional assay
Aβ4-40 [9] = molecular target: T12, Aβ4-40; assay: cell-based or functional assay
AβpE3-42 = AβpE3-42 (human, N-terminal pyroglutamate at Aβ position 3 (pE3)); assay: cell-based or functional assay
Aβ4-38 [10] = molecular target: T13, Aβ4-38; assay: cell-based or functional assay

Binder	peptide amount giving similar signal intensity [1]	peptide amount giving similar signal intensity [2]	binding result [3]	binding result [4]	binding result [5]	binding result [6]	binding result (Aβ4-10)	binding result (Aβ36-40)	binding result (Aβ4-19)	binding result (Aβ3-18)	binding result (Aβ2-17)	binding result (Aβ4-40 [7])	binding result (Aβ4-38 [8])	binding result (Aβ5-20)	viability of SH-SY5Y cells (MTS), aged 10 µM peptide with against without antibody (Aβ4-42)	viability of SH-SY5Y cells (MTS), aged 10 µM peptide with against without antibody (Aβ4-40 [9])	viability of SH-SY5Y cells (MTS), aged 10 µM peptide with against without antibody (AβpE3-42)	viability of SH-SY5Y cells (MTS), aged 10 µM peptide with against without antibody (Aβ4-38 [10])
B1	500 ng	500 ng	no binding	no binding	no binding	no binding	binds	no binding	binds	binds	binds	binds	binds	no binding (tested: 7 µg/ml)	–	–	–	–
B2	70 ng	70 ng	no binding	no binding	no binding	no binding	binds	no binding	–	–	–	–	–	–	< 0.01 p value	< 0.01 p value	< 0.05 p value	< 0.01 p value
